Experimental data from patent US6528618B1, “Anti-inflammatory peptides derived from C-reactive protein” (Yeda Research and Development Co. Ltd., priority 1997, dated 2003).
Where two headings read alike, the source gives them in different places. Where a SMILES comes first, the peptide text is derived from it.

Legend:
hLE [1] = molecular target: T1, hLE (Homo sapiens, UniProt P08246); test: Resistance to proteolysis by hLE, degradation profile by RP-HPLC; type: in vitro ADME; settings: PBS, 37° C., up to 12 hours
T1 construct: Neutrophils (1.4 billion) were isolated from whole blood obtained from a single healthy laboratory donor; from tissue; host or cells: neutrophils from whole blood of a single healthy donor
T1 sequence (P08246 30-247 limits assumed): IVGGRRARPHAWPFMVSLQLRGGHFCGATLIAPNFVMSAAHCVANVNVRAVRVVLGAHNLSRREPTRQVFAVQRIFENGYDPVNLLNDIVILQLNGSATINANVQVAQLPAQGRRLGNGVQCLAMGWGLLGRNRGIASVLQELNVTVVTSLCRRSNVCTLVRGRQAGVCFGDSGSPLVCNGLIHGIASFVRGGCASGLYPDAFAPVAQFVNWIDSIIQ
Protocol: (§1) (vii) Degradation profiles of peptides by RP-HPLC: Several active peptide inhibitors were dissolved in calcium- and magnesium-free phosphate-buffered saline (PBS), 125 μg /250 μL, mixed with […] of hLE or hCG in 250 μL PBS and incubated at 37° C. Periodically (up to 12 hrs), 100 μL samples were removed from the reaction vessel. The samples were diluted with 150 μL of 0.1% TFA, frozen with liquid nitrogen, and stored at −20° C. prior to HPLC analysis.
(§2) The stability of the peptide bonds in peptide 6 were evaluated by incubating the peptide with hLE and hCG and monitoring degradation profiles of the peptide by reverse-phase HPLC. Briefly, peptide 6 was dissolved in calcium- and magnesium-free phosphate-buffered saline (PBS), 50 μg/250 μL, mixed with 3 μg of hLE or hCG in 250 μL PBS and incubated at 37° C. Periodically, after 1,3,8, and 12 hrs incubation, 100 μL samples were removed from the reaction vessel. The samples were diluted with 150 μL of 0.1% TFA, frozen with liquid nitrogen, and stored at −20° C. prior to HPLC analysis.

[2] = molecular target: T2, human leukocyte cathepsin G (hCG) (Homo sapiens, UniProt P08311); test: In vitro inhibition of hCG (cleavage of Suc-AAPF-NA); type: biochemical
T2 construct: Neutrophils (1.4 billion) were isolated from whole blood obtained from a single healthy laboratory donor; from tissue; host or cells: neutrophils from whole blood of a single healthy donor
T2 sequence (P08311 21-243 limits assumed): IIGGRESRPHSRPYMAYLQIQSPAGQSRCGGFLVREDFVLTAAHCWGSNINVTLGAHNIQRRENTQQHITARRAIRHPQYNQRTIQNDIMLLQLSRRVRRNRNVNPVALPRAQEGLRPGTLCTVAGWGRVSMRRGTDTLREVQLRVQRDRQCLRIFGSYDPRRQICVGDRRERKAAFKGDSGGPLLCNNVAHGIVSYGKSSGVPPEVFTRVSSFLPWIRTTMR
Protocol: The enzymatic activity was assayed with MeOSuc-AAPV-NA for hLE determination and Suc-AAPF-NA for hCG determination (both in 100 mM Hepes buffer, pH 7.4, containing 0.05% of the […] detergent Brij-35). The activities of the individual enzymatic fractions were 100% free from cross-contamination. […] The fractions containing hLE and hCG were dialyzed each against 0.1% pyridinium acetate, pH 5.3, divided into 20 aliquots, lyophilized, and stored at −20 ° C. until use.
(§3) vi) Inhibition experiments with hCG: Similar conditions to hLE inhibition experiments were used except the substrate: 80 μL of 1.80 mM Suc-AAPF-NA. The enzyme was dissolved in 800 μL buffer, and the reaction was monitored every 6 min for 1 hour. The final volume was 240 μL containing: 5% DMSO, 1-100 μM peptide, 600 μM substrate, and 1.2 μg enzyme (about 40 picomol).
For hCG, V is determined by fitting a quadratic equation to the total kinetic data (60 min), using the least squares method and calculating V at t=0.
The hCG inhibitory capability of CRP-derived peptides was evaluated by inhibiting the enzymatic cleavage of Suc-AAPF-NA as described in Materials and Methods (section vi).

[3] = molecular target: T3, human leukocyte elastase (hLE) (Homo sapiens, UniProt P08246); test: In vitro inhibition of hLE (cleavage of MeOSuc-AAPV-NA); type: biochemical
T3 construct: Neutrophils (1.4 billion) were isolated from whole blood obtained from a single healthy laboratory donor; from tissue; host or cells: neutrophils from whole blood of a single healthy donor
T3 sequence (P08246 30-247 limits assumed): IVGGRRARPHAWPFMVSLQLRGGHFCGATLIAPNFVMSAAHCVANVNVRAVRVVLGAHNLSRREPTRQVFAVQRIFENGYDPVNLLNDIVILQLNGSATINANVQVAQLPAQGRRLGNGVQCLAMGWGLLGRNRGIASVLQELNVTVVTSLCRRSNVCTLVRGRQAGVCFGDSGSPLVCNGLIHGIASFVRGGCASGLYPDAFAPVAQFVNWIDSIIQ

hCG = molecular target: T4, hCG (Homo sapiens, UniProt P08311); test: Resistance to proteolysis by hCG, degradation profile by RP-HPLC; type: in vitro ADME; settings: PBS, 37° C., up to 12 hours
T4 construct: Neutrophils (1.4 billion) were isolated from whole blood obtained from a single healthy laboratory donor; from tissue; host or cells: neutrophils from whole blood of a single healthy donor
T4 sequence (P08311 21-243 limits assumed): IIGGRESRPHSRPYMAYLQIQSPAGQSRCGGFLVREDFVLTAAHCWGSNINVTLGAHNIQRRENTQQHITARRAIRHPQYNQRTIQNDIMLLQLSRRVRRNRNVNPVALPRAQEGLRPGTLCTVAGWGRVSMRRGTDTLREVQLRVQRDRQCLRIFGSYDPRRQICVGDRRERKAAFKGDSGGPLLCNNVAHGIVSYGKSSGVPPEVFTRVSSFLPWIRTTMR
Protocol: as §1, §2

human leukocyte elastase [4] = molecular target: T5, human leukocyte elastase (human, UniProt P08246 30-267); test: hLE enzyme inhibition kinetics, cleavage of MeOSuc-AAPV-NA
T5 construct: mature; Active enzyme purified from human neutrophils; also called hLE
T5 sequence (looked up): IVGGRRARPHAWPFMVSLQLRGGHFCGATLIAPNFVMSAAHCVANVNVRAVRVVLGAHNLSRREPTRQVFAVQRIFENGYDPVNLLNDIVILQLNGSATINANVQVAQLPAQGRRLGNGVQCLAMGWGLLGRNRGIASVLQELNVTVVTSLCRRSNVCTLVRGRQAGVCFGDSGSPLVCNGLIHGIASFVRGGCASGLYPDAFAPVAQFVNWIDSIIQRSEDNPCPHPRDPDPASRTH
Protocol: (§4) (v) Inhibition experiments with hLE: Peptides were dissolved in 100 mM Hepes buffer pH 7.4 containing 0.1% Brij-35 with 10%. DMSO to yield 300 µM solutions, which were used to make further dilutions with the same buffer, and 80 µL aliquots were added in duplicates to 96-well plates. The substrate, 600 µM MeOSuc-AAPV-NA in the same buffer with 5% DMSO, was added to each well in addition to the blank wells, and the plate was placed in the plate reader equilibrated to 37 C (Dynateck MR-6000). Lyophilized aliquots of hLE were dissolved in 1600 µL of 100 mM Hepes buffer without DMSO, and 80 µL of the enzyme solution was added to the peptides and substrate to initiate the reaction. The kinetics program read the plate at 405 nm every 2 min for 20 min (with a 3 sec shaking period between readings), and plotted the results as well as the average of each duplicate. The final volume was 240 µL containing: 5% DMSO, 1–100 µM of peptide, 200 µM substrate, and 0.75 µg (~25 picomol) enzyme.
(§5) The hLE inhibitory capability of CRP-derived peptides was evaluated by inhibiting the enzymatic cleavage of MeOSuc-AAPV-NA as described in Materials and Methods (section v).

[5] = molecular target: T6, human leukocyte cathepsin G (human, UniProt P08311 21-244); test: hCG enzyme inhibition kinetics, cleavage of Suc-AAPF-NA
T6 construct: mature; Active enzyme purified from human neutrophils; also called hCG; human Cathepsin G
T6 sequence (looked up): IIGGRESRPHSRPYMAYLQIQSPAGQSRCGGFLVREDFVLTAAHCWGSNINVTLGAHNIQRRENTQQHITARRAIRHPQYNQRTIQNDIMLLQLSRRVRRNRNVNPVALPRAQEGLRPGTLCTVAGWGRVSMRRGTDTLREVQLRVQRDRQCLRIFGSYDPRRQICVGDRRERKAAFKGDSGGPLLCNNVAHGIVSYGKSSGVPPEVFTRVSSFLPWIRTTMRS
Protocol: as §4
as §3, with “µL” for “μL”, “1–100 µM” for “1-100 μM”, “µM” for “μM”, “µg” for “μg”

human leukocyte elastase [6] = molecular target: T5, human leukocyte elastase; test: hLE enzyme inhibition kinetics, cleavage of MeOSuc-AAPV-NA; remark: listed apart in the source
Protocol: as §4, §5

[7] = molecular target: T6, human leukocyte cathepsin G; test: hCG enzyme inhibition kinetics, cleavage of Suc-AAPF-NA; remark: listed apart in the source
Protocol: as §4
as §3, with “µL” for “μL”, “1–100 µM” for “1-100 μM”, “µM” for “μM”, “µg” for “μg”

[8] = tested on: specific receptors on human neutrophils; settings: in vitro; read-out: Kd, binding to receptors on human neutrophils; cited from earlier work
[9] = molecular target: specific receptors on monocytes; settings: in vitro; read-out: Kd, binding to receptors on monocytes; cited from earlier work
hLE [10] = molecular target: T7, hLE (Homo sapiens, UniProt P08246); settings: CRP as a whole protein; cited from earlier work
T7 sequence (P08246 30-267): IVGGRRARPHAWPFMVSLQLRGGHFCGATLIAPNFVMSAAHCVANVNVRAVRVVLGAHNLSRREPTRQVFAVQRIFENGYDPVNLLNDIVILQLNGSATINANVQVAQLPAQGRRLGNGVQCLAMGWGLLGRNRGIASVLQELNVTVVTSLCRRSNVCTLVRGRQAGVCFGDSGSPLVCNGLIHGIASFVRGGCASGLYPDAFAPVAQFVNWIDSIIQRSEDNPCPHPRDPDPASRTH

[11] = peptide concentrations above 50 μM

CC[C@H](C)[C@H](NC(=O)[C@H](CC(=O)O)NC(=O)[C@H](CCCCN)NC(=O)[C@H](CO)NC(=O)[C@H](Cc1c[nH]c2ccccc12)NC(=O)[C@H](Cc1ccccc1)NC(=O)[C@@H](NC(=O)[C@H](CC(C)C)NC(=O)[C@@H](NC(=O)[C@@H](N)CCC(=O)O)[C@@H](C)CC)[C@@H](C)CC)C(=O)NCC(=O)N[C@@H](Cc1ccc(O)cc1)C(=O)N[C@@H](CO)C(=O)N[C@@H](Cc1ccccc1)C(=O)N[C@H](C(=O)O)[C@@H](C)O [Peptide 6, Glu-Ile-Leu-Ile-Phe-Trp-Ser-Lys-Asp-Ile-Gly-Tyr-Ser-Phe-Thr] (H-EILIFWSKDIGYSFT-OH; N-terminus and C-terminus assumed)
cleavage products after incubation with hLE (hLE [1]): no cleavage products were observed
hCG inhibitory activity (in words) [2]: submicromolar concentrations
Ki ([2]; hCG Ki [μM], Table 1, substrate Suc-AAPF-NA 600 μM, pH 7.4): 0.25 ± 0.05 µM
hCG inhibition at concentrations above 50 μM [2, 11]: total inhibition
hLE inhibitory activity (in words) [3]: submicromolar concentrations
Ki ([3]; hLE Ki [μM], Table 1, substrate MeOSuc-AAPV-NA 200 μM, pH 7.4, 37 C): 0.18 ± 0.03 µM
hLE inhibition at concentrations above 50 μM [3, 11]: Total inhibition
cleavage products after incubation with hCG (hCG): no cleavage products were observed

B1: peptide 18 (peptide)
peptide: DILIFWSKDIGYSFT
notes: Analog of peptide 6 (CRP62-76) with Glu62 replaced by Asp; also called pep18
fold lower inhibitory activity against peptide 6 (human leukocyte elastase [4]): 10 fold
Ki [5]: 2.6 µM
Ki (human leukocyte elastase [6]): 2.2 µM

B2: peptide 19 (peptide)
peptide: EILIFWPKDIGYSFT
notes: Analog of peptide 6 (CRP62-76) with Ser68 replaced by Pro
Ki [5]: 30 µM

B3: peptide 23 (peptide)
peptide: EILIFWSKEIGYSFT
notes: Analog of peptide 6 (CRP62-76) with Asp70 replaced by Glu; also called pep23
Ki (human leukocyte elastase [6]): 0.55 µM

B4: peptide 14 (CRP62-71) (peptide)
peptide: EILIFWSKDI
notes: Synthetic; also called pep14
Ki [5]: 6 µM
Ki (human leukocyte elastase [6]): 6.7 µM

B5: peptide 26 (peptide)
peptide: EILIFWSVDI
notes: 10-mer analog of peptide 14 (CRP62-71) with Lys69 replaced by Val; also called pep26
Ki (human leukocyte elastase [6]): 2 µM

B6: peptide 5 (CRP57-71) (peptide)
peptide: KRQDNEILIFWSKDI
notes: Synthetic 15-mer
Ki (human leukocyte elastase [4]): 85 µM
Ki [7]: 180 µM

B7: peptide 17 (CRP55-83) (peptide)
peptide: ATKRQDNEILIFWSKDIGYSFTVGGSEIL
notes: Synthetic 29-mer
Ki (human leukocyte elastase [6]): 7.3 µM

B8: peptide 24 (reverse sequence of peptide 6) (peptide)
peptide: TFSYGIDKSWFILIE
fold less active against peptide 6 (human leukocyte elastase [4]): 30 fold
Ki (human leukocyte elastase [6]): 10 µM

B9: peptide 13 (CRP62-73) (peptide)
peptide: EILIFWSKDIGY
notes: Synthetic; also called pep13
Ki [5]: 4 µM
Ki (human leukocyte elastase [6]): 1.1 µM

B10: peptide 10 (CRP82-96) (peptide)
peptide: ILFEVPEVTVAPVHI
notes: Synthetic 15-mer
Ki (human leukocyte elastase [4]): 55 µM
Ki [7]: 150 µM

B11: CRP: plasma protein classified as a major acute phase reactant; five identical sub-units of 206 amino acids (pentraxin) (protein, listed as Homo sapiens)
chain: ETDMSRKAFVFPKESDTSYVSLKAPLTKPLKAFTVCLHFYTELSSTRGYSIFSYATKRQDNEILIFWSKDIGYSFTVGGSEILFEVPEVTVAPVHICTSWESASGIVEFWVDGKPRVRKSLKKGYTVGAEASIILGQEQDSFGGNFEGSQSLVGDIGNVNMWDFVLSPDEINTIYLGGPFSPNVLNWRALKYEVQGEVFTKPQLWP
modifications: pentamer
Kd [8]: ~0.05 µM
Kd [9]: ~0.1 µM
inhibitory effect of whole CRP on hLE (hLE [10]): no inhibitory effect

B12: peptide 11 (CRP63-76) (peptide)
peptide: ILIFWSKDIGYSFT
notes: Synthetic
fold decrease in hLE inhibition against peptide 6 (human leukocyte elastase [4]): ~20 fold
Ki [5]: 15 µM
Ki (human leukocyte elastase [6]): 4.5 µM
